The term Km denotes the substrate concentration at which the rate is half of its maximum.

2 proteins from paper PMC4108183 can be followed below.

Substrate in data set [1]: CC(C)(COP(=O)(O)OP(=O)(O)OC[C@H]1O[C@@H](n2cnc3c(N)ncnc32)[C@H](O)[C@@H]1OP(=O)(O)O)[C@@H](O)C(=O)NCCC(=O)NCCS
Nature of the data set: purified protein. As to conditions: alternate sulfane sulfur acceptor; pH 9.0; 37.0 °C.

Substrate in data set [2]: O=S(O)(O)=S
Nature of the data set: purified protein. As to conditions: pH 9.0, 37.0 °C.

B1: yeast RDL1 (Saccharomyces cerevisiae S288C) (protein)
chain: MWKAVMNAWNGTESQSKNVSNIQSYSFEDMKRIVGKHDPNVVLVDVREPSEYSIVHIPASINVPYRSHPDAFALDPLEFEKQIGIPKPDSAKELIFYCASGKRGGEAQKVASSHGYSNTSLYPGSMNDWVSHGGDKLDL
Take B1: the values for the Km in data set [1] and in data set [2] (sulfane sulfur transferred to active site cysteine (Cys98)) were 150 ± 50 µM and 2000 ± 500 µM, respectively.

B2: human TSTD1 (Homo sapiens) (protein)
chain: MAGAPTVSLPELRSLLASGRARLFDVRSREEAAAGTIPGALNIPVSELESALQMEPAAFQALYSAEKPKLEDEHLVFFCQMGKRGLQATQLARSLGYTGARNYAGAYREWLEKES
For the protein B2, the Km was determined as 90 ± 10 µM in data set [1] and 14000 ± 2000 µM in data set [2] (sulfane sulfur transferred to active site cysteine (Cys79)).
